From paper PMC10203562

How the values were obtained:
Test in all cases: SPR; Biacore 8K+; anti-human IgG (Fc) amine-coupled to CM5 captures the antibody (10-25 RU); PCSK9 50 nM to 12 pM flowed over, 240 s association, 1800 s dissociation; Langmuir 1:1 global fit; duplicates
bococizumab variant AEGQ = molecular target: bococizumab variant AEGQ
bococizumab variant AEPA = molecular target: bococizumab variant AEPA
bococizumab variant EDGM = molecular target: bococizumab variant EDGM
bococizumab variant PEGQ = molecular target: bococizumab variant PEGQ
bococizumab variant PELW = molecular target: bococizumab variant PELW
bococizumab variant PENW = molecular target: bococizumab variant PENW
bococizumab variant PERQ = molecular target: bococizumab variant PERQ
bococizumab variant PFGQ = molecular target: bococizumab variant PFGQ
bococizumab variant SEGQ = molecular target: bococizumab variant SEGQ
bococizumab variant SELW = molecular target: bococizumab variant SELW
bococizumab = molecular target: bococizumab

Substance “proprotein convertase substilisin/kexin type 9 (PCSK9) (from UniProt Q8NBP7 153-692) (natural protein)” has a Kd (bococizumab variant AEGQ) of 0.19 nM, a Kd (bococizumab variant AEPA) of 0.21 nM and a Kd (bococizumab variant EDGM) of 0.66 nM. It also gave a Kd (bococizumab variant PEGQ) of 0.2 nM, a Kd (bococizumab variant PELW) of 0.19 nM and a Kd (bococizumab variant PENW) of 0.24 nM. For the same substance, the Kd (bococizumab variant PERQ) was 0.25 nM, the Kd (bococizumab variant PFGQ) was 0.25 nM and the Kd (bococizumab variant SEGQ) was 0.35 nM. It also gave a Kd (bococizumab variant SELW) of 0.27 nM and a Kd (bococizumab) of 0.25 nM.
